Experimental data taken from article PMC5859912 (ACS Chemical Biology, 2018).

Columns and labels:
[1] = biological target: PCY1:S562A (Saponaria vaccaria) (UniProt R4P353); experiment: ITC
PCY1 = format: biochemical, Saponaria vaccaria; details: LC/MS (ion count); 30 °C; pH 8.5
PCY1:S562A = biological target: T1, PCY1:S562A (Saponaria vaccaria, UniProt R4P353 1-724, S562A); experiment: ITC
T1 sequence: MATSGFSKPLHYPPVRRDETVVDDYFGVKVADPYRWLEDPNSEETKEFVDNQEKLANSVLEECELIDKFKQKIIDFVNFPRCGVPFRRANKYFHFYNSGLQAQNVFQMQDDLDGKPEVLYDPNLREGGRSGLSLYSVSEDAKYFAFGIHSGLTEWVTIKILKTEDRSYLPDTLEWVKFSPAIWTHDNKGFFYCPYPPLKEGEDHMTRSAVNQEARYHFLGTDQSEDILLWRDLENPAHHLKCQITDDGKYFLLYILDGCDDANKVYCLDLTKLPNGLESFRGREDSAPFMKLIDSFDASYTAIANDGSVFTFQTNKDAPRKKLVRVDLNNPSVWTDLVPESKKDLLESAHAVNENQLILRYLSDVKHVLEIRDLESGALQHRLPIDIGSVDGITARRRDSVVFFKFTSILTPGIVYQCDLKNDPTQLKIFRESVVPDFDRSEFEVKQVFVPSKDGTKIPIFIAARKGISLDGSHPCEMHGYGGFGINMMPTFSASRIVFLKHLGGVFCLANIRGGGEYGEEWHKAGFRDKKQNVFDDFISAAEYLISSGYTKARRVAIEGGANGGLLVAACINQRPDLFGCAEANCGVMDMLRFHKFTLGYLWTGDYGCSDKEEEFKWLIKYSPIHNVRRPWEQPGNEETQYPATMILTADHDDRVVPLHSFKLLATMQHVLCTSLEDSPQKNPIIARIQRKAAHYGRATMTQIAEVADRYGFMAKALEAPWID

presegetalin B1 (peptide)
Kd [1]: 0.238 µM

presegetalin D1 (peptide)
Kd [1]: 0.25 µM

FSASYSSKP FQA
kcat/Km (PCY1): 1200 s^–1 M^–1

presegetalin A1 (peptide)
Kd [1]: 0.173 µM

presegetalin F1 (peptide)
Kd [1]: 0.136 µM

DNASAPV
Kd (PCY1:S562A): 9.58 ± 0.58 µM
